From the domain aggregation screens of Martell et al. (2025)

Assay: soluble fraction after stress (log2 fold change); higher = more stays soluble; pooled small domains, quantitative proteomics
Details: stress: pH 4
Procedure, shortened: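 Aggregation propensity is estimated from the fold change in each domain's soluble amount after acid stress. Pooled small-domain libraries were stressed at pH 4, and higher log2 values mean more stayed soluble.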

Row | Sequence | soluble fraction (log2)
1 | HMTPELTAEEREVLSLLGDEPRTLAELIAASGRDYAALSVLLMGLELSQAVRQLPGNRYERF | -1.36
2 | HMELLTYREMDVLNLLDQRLTNKEIAHALGISTETVRQHTVNLFRKLNVDNRRQAIVVARSLGYIGTPT | -0.894
3 | HMKTEVNITPGIIDWIERYVQTDKISSSMTEDFQHWKSGTKKPTFNQVEAFSKAINVPLGYFFLKTPPAE | -0.902
4 | HMSDPVDDLLLRISQQAGVARGQLVAELNMLVQDRFGGNLRHEAAAVLMAKRYGIEFRDLLPALREHLVKN | -0.469
5 | HMNTEEVGSYLKKLRLEHSFTQKELAGKLYITHQAVSNWEKGKALPDIGILSQLGDIYGISIDNLLLK | -0.551
6 | HMNINHEINIKSKKKISILENNPNLSQFYLTKNPDQYNYNLVFSDKSELNKLKEKLESDNEVEDIDIRYG | -0.195
7 | HMEISNWLEEIGLSRYTETLSEFPLEDLVEFTDDDFKELGVLTPHRKKLLAAIATLNNDASSN | -1.12
8 | HMEESTYQWNNFVRDFYASRVSAQYTNKLKVAAILWHHVKNTPQSKIYHDNLVSKYAEEINYFK | -0.387
9 | HMPLNAFDVAGYRLGYGGGYFDRTLAALSPRPLAVGVGFEINRLESIRPEAHDQRLDWIVTENGAFRPA | -0.944
10 | HMDDHLRLSDNERISAMSALATHFTEGRLDTSEFDERTLAASQAKSRGDLRPLFDDLPGQLPAALSP | -0.125
11 | HMGPESKLTDAIKDYIYALYENLKGKSKFRNTIIEEVKKLYGVDISRESIRRVVNQKTDAETTENDDDEKA | 0.197
12 | HMDDFNLSPREKDVLGHLVKGNSYKMIADELQIGYDTVHSHIKKIYKKLHVNSMSEAVAKALKNKL | -0.26
13 | HMRKEPSYASDIITRLKEADLIVVEGTLYPLLTRLKKDGLLSYEWRESTQGPPRKYYALTLDGET | -0.895
14 | HMSQTVKYVNTTSGLNMRTGPATSYAKITTIAYGQSVNVLSTSNGWSKINYSGSTGYVSSQYLQSKKPS | 0.183
15 | HMEHPNNTELTQKLELGTELMQYGDYNYALKVFNNVIDSDPEWSEAWNKRATVYFLMSQFTDSLSDIDRV | -0.17
16 | HMGIFDIIQEINRQGVTVLLIEQNANMALKIADVGYVLETGRISLTGSGRELLANEAVKKAYL | ≥ 0.43
17 | HMPKRSKDEAELEFLEMLRDNQVDSTWSFGKIISQLGSTDPRYWMVDDDPLWKRQIFEKYLSNR | -1.79
18 | HMGYLNDRQRLIKDFITENQPLKVSDLVKQFPNIGLSTLKKDLQYLRGEQVLTMIGKGKGSVYVLNKK | ≥ 0.43
19 | HMDTDVFLMDLRGESRDYAEEVLINNNLEVKVIILPFSKRHYPGKVVEMRPSPFTKVKKGRIITLSVAGN | -1.11
20 | HMLLLHINQMGVTEFSQLELNHVRSWLANLQIKGAARSSITRRVVSVRAFTYWGAKNGWLASDIGRDLVAP | -0.275
21 | HMSIQMPDLSITPVTDAKKKIESLQLQYKEVGEYNDSVIAGYVIRTEPASGSYLNEDEEVIIYVSKG | -0.525
22 | HMVPISGADFEKLSDYILQKAGAGSIQVKELLAGLKGMHEKNLWKAIDYLLAEEKIRIDKGGNISVK | -0.249
23 | HMHKLTIEEALNYKTPANAGGPYSGKPFRDIYDQRGKAAVISFAKYYLSKATPEDPMVEVYRTLLDGAMEL | 0.102
24 | HMEDIASESVKRVIRKIIDDEDKKSPLSDQAIVEILAKGEGIVIARRTVAKYREMMGILPSSKRKKH | 0.0959
25 | HMFLPFFDNLRKAGVPVSLREFLGFLEGMKAGLATYDIDAFYFLARTTMVKDERNLDKFDRAFSATFKG | -0.935
26 | HMALKQADFDFIRQMIQQRAAIVLDDNKHYFVESRLGPVVEETGSKSLDQLIDQLRSSSNSLLQQKVTEAI | -0.324
27 | HMHPFELNTVTEGQLKRLPFLSDLQIRELLEYRSRYGKMLTLYELKNVEAFDLETISLLVPFIYISEI | -1.44
28 | HMEGAEDMNRALALAFLRDNSRSTVAQLAEHLGSSKRSAERLVAQLKDEGVLERQGSPRAGLWIVHI | 0.221

Row | Sequence | soluble fraction (log2)
29 | HMKKPKTVLSEEQKEFIINQAQDGVSAYDIARILFPSVNVTNLSKEVIDVAEFIRDTDIKLLADSE | -0.132
30 | HMTGIESVKPSSDFTVEGNRIVAGDAEVEVYDLAGRKVNNNNLTTGVYIAKIAGSAESVKVFV | 0.22
31 | HMGIKYTNQRVEILNFLKDNLSHPTVDDVYEGVKKKLTRISKATVYQNLKFLASKGLIQEVNIKGVSRFEP | 0.22
32 | HMVGDLPPQELRVFELIGDGLSNREIADEMILAEKTIKNYVTSLLQKLGMQRRTEAAAFAARLDER | -0.607
33 | HMRLLAESIARGLDPEGSGGLWAKEAGAEALKLMETLAAEAPHGGSFTAAAYRDLFESLVHQGEVREA | -0.335
34 | HMTDEYYSYIGKTGTTITVLRPAGIAEVEGERLNVVSEGEFIRKGAAILVKEVEGARILVEEVN | 0.349
35 | HMVRRSERLHALTESLRRSGNRGRTAEQLATEFEVSVRTIKRDLVALEASGLPLWSRPGPGGGYGLLS | -0.0236
36 | HMTPTFSNQDLIKAGLAGSPVAKRRRERLGELLGIGYGNAKQLLKRLDLFAIDRPTFERAVAQLDQEGK | 0.414
37 | HMKVSDLIGMLGRVTGELAPTGIVLVGNKTWTAISEDASVIASGEQVQVRSVAGLILTVSHQVD | -0.954
38 | HMDIVEIYVGEEDGERIDSYLAQELNNVSRSYVQGLIKNQLITVNGNHVKPKHIVKEGEHIIVNIPPPKV | -0.108
39 | HMQAKQVAIPDVANYSVTDAIKKLQDAGFIVSDEQREEANETVSEGKVSRTSPAAGSIRKEGTEIILYKSL | 0.279
40 | HMKWIEILKSKDGNYALLQDEKDTQFVVASGYNPDAAEDQKWGHGSYFIYWNNKENKAEMLMNAIDLFRYR | -1.34
41 | HMNMGEKIRSLIGQFGVTSEDLKNLSVANLLIRMNQEAGDSKTKGILASLLETVNKAGVGNLTPDALGIK | 0.064
42 | HMRQHHMIISTKLGTPKEELAKLVSGFEDQGLRVSVITGTDYTVIGLVGDTTHLDEKRIRANPYVDNVQRV | 0.0502
43 | HMNQNAMIGAHIRNLRLAKKLTLKQLSDESGLSVGFLSQLERGMSSIAIDTLARLAHILGADLSSFF | -0.214
44 | HMTMQQGTISRLNHSRGFGFLTTPDGEDLFFHRTNVHETPFARLQVGDRVTYDVQVTPRGTRADKVQLNM | -0.222
45 | HMPSLAVYPNPVKDILNIATDKPVHSIRIYNVYGSEVLRAADTNRIDVSHLPAGVYMVSADGKVTRIIK | 0.0765
46 | HMETPQIVARGDLITMVFRSGSLVLTAKGKALENGAMGDTIRVVNSDSNKTLAARVSASREVTVSE | -0.146
47 | HMAHYPGKVNNELVEFIRSEQRKTPHMTLTGLNRKLQRTYDLTLSESTVRKLVEAETILPLAREPD | 0.217
48 | HMGSEISYSEFLNRVEQGQVAAVRLDGEQIFITGPTGEAYQTIQPRNTDVLPDLREAGVEIQAAPQ | -0.675
49 | HMGMVEFEIGERDHSEDVSRKLFEAGLIEDASDFNQYMIEKKMDDHLQTGKYQIPKGATKDEILELIVR | -0.674
50 | HMKQVTVGGTINAGGARIYADSYGNGGGRQTFGSDPIYTVLQERNGYILTRWHKLSSGYTGWFKKSDVSA | -0.00968
51 | HMNSKMTYSELITSMENKEVESVKISSSGDVASVKLKNSKTEKEVKIPSLDSFMTYTEQYLKTGEITLEE | -0.0537
52 | HMPGLDTTILSDILSLKKELPSRSAAKILIMLILAKRIEEGSLNLRTINRILNQYGYTRESLL | 0.327
53 | HMEHDTVLSKVFRRLREAHVPLSLDDIYQGLRKTVNNNSEIREKIVTLQERGLVAEILGPKGGKKYVAKPT | 0.199
54 | HMKREELTQQTKQNLREAFWSLYIQKPIEKITVKEITDIAGYNRGTFYLYYKDTYDLLAKIE | -0.646
55 | HMQGAARGMLFAQAQRWMTKFRIDPQQADRITQAALDPAQTDAILREVRRGYGPSAERALRGIIRRARRA | 0.259
